This assay deals with mouse VMS1-Flag-HA (mouse) (UniProt Q80UU1). In words: co-IP.
UniProt Q80UU1, sequence (Q80UU1 whole entry): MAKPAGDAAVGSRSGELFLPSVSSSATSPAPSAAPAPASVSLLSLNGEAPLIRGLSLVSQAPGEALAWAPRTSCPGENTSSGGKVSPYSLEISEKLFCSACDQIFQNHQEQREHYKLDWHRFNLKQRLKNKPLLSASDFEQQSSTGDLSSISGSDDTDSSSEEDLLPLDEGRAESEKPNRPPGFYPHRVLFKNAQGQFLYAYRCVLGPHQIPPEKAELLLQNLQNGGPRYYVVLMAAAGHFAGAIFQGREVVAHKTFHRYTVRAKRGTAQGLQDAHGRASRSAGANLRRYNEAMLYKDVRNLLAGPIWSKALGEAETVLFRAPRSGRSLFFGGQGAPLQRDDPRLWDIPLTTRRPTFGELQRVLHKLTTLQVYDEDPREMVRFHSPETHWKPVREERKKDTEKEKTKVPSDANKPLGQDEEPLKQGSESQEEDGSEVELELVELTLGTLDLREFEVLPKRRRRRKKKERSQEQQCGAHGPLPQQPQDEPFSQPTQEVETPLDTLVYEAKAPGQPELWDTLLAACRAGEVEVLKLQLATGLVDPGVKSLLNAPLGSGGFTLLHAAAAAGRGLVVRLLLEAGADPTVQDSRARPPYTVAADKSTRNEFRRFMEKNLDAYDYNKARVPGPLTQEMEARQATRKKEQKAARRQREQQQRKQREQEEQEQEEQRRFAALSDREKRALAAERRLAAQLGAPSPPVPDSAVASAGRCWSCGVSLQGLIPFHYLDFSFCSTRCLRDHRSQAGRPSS

VCP, sequence (Q01853 whole entry): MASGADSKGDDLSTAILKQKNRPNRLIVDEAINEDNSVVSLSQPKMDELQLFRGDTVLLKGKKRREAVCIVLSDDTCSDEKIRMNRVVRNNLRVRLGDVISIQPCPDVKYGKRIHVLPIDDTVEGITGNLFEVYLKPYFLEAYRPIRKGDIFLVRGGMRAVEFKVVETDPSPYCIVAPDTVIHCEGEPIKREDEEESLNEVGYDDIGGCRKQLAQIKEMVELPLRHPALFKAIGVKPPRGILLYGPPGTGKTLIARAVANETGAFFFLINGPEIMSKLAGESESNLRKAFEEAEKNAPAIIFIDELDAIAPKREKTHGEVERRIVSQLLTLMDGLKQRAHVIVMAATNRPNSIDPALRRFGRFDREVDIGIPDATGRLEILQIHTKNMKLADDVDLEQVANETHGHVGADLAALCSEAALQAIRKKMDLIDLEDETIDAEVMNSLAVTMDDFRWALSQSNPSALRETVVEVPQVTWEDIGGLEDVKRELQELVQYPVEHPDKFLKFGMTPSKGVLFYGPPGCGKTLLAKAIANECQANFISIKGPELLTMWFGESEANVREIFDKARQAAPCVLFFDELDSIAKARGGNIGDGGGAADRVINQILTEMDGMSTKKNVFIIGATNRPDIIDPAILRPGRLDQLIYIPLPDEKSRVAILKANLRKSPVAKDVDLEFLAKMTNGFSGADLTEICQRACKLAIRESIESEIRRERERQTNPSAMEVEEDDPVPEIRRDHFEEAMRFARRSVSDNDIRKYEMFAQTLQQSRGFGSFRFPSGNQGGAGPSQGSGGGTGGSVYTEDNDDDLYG

“VCP (from UniProt Q01853 1-806) (natural protein)”: the percent of the total cellular VCP associated with Vms1 is < 5%.

The values are drawn from PMC2998070.
